Article PMC12001115, “Double prenylation of budding yeast Ykt6 regulates cell wall integrity and autophagy” (The Journal of Biological Chemistry, 2025)

Target: T1, Ecm9 (recombinant, subunit of yeast GGT3) (budding yeast (S. cerevisiae), UniProt Q02202 1-377)
T1 construct: Ecm9, budding yeast; no tag is named for this chain; also called recombinant yeast GGT3 α subunit
T1 sequence (looked up): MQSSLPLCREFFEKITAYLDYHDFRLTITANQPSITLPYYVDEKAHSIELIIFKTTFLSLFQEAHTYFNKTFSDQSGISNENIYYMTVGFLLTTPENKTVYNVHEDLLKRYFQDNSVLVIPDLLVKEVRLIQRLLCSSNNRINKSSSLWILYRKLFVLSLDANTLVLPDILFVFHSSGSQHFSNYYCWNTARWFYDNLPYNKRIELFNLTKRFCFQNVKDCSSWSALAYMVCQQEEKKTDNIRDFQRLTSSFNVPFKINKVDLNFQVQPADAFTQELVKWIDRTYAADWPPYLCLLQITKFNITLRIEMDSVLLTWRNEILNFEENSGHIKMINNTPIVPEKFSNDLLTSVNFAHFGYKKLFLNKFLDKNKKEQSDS
Assay: SEC; Ecm9 and GST-Bet2 co-expressed in ExpiSf cells and co-purified (glutathione Sepharose, GST cleaved, MonoQ), then Superdex 200 Increase gel filtration in buffer A (50 mM HEPES-KOH pH 7.4, 50 mM NaCl, 5 mM MgCl2, 1 mM DTT); SDS-PAGE with Coomassie staining
Conditions: both partners purified

B1: Bet2 (recombinant, subunit of yeast GGT3) (natural protein, budding yeast (S. cerevisiae), UniProt P20133 1-325, looked up)
chain: MSGSLTLLKEKHIRYIESLDTKKHNFEYWLTEHLRLNGIYWGLTALCVLDSPETFVKEEVISFVLSCWDDKYGAFAPFPRHDAHLLTTLSAVQILATYDALDVLGKDRKVRLISFIRGNQLEDGSFQGDRFGEVDTRFVYTALSALSILGELTSEVVDPAVDFVLKCYNFDGGFGLCPNAESHAAQAFTCLGALAIANKLDMLSDDQLEEIGWWLCERQLPEGGLNGRPSKLPDVCYSWWVLSSLAIIGRLDWINYEKLTEFILKCQDEKKGGISDRPENEVDVFHTVFGVAGLSLMGYDNLVPIDPIYCMPKSVTSKFKKYPYK
notes: Bet2, budding yeast; also called GST-BET2; recombinant yeast GGT3 β subunit; not shown: GST, N-terminal, cleaved
  binding result: binds
